Molecular target: the molecule itself
Experiment: native gel or EMSA

B1: BAK (BCL-2 homologous antagonist/killer), endogenous in mouse liver mitochondria (natural protein, UniProt O08734 1-209, looked up)
chain: MASGQGPGPPKVGCDESPSPSEQQVAQDTEEVFRSYVFYLHQQEQETQGAAAPANPEMDNLPLEPNSILGQVGRQLALIGDDINRRYDTEFQNLLEQLQPTAGNAYELFTKIASSLFKSGISWGRVVALLGFGYRLALYVYQRGLTGFLGQVTCFLADIILHHYIARWIAQRGGWVAALNFRRDPILTVMVIFGVVLLGQFVVHRFFRS
stoichiometry N: 2
